How the values were obtained:
[1] = target: previously unrecognized receptor on the RBC (receptor for PfRH5) (human (endogenous in erythrocytes)); experiment: other fluorescence titration; competition: 2 µM rhodamine-rRH5 with 25 µl packed RBC ghosts in PBS and increasing unlabeled rRH5 (0.1 to 400 µM), 2 h at RT, bound labeled rRH5 by spectrofluorimetry
[2] = target: previously unrecognized receptor on the RBC (receptor for PfRH5) (human (endogenous in erythrocytes)); experiment: other fluorescence titration; […] fit for identical independent binding sites

## recombinant PfRH5 protein (rRH5), 143-aa fragment Asn-31 to Val-174, GST fusion (domain or fragment)
[1]
  IC50: 50 µM

## rhodamine-labeled rRH5 (domain or fragment)
[2]
  Kd: 12 µM

Reference: PMC2553180
